Some targets named below: recombinant tryptase (UniProt Q15661); human α-FXIIa (human) (UniProt P00748); urokinase (uPA) (UniProt P00749); recombinant sc-tPA (UniProt P00750).
Assay [1] deals with bovine pancreatic trypsin (bovine).
The target in assay [2] is human plasmin (human).
Assay [3] concerns the target human plasma kallikrein (human) (UniProt P03952).
Assay [4] addresses bovine factor Xa (bovine).
For assay [5], the target named is recombinant human FVIIa (NovoSeven) (human) (UniProt P08709).
In assay [6] the target is bovine pancreatic trypsin (bovine). The assay can be described thus: enzyme inhibition kinetics (progress curves, chromogenic substrate); slow-binding inhibition; second-order rate constant k2/Ki from kobs; 0.2 mM Chromozym TH (trypsin, 6.25 ng/ml) or Chromozym PL (plasmin, 12.5 µg/ml); boophilin 0.1-0.65 µM (trypsin) or 0.04-0.4 µM (plasmin); 45 min at 37°C.
In assay [7] the target is human plasmin (human). The description is as above.
Target sequence in this assay (P00747 20-580, chain 1 of 2): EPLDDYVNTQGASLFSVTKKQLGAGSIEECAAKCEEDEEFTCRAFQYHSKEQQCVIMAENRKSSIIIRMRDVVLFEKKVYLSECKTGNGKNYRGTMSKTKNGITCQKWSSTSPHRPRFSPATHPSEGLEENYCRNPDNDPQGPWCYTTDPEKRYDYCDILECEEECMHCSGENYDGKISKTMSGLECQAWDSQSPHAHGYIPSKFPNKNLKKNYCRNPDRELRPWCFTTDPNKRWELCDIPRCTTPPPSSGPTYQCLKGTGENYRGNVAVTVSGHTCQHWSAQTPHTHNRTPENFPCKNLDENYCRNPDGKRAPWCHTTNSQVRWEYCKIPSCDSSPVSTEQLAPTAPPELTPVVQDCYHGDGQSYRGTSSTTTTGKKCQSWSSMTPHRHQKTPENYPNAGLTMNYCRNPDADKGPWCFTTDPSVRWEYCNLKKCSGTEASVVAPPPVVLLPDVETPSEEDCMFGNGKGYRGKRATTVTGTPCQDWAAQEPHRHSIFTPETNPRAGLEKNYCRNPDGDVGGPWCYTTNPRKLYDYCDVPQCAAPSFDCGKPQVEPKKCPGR
Target sequence in this assay (P00747 581-810, chain 2 of 2): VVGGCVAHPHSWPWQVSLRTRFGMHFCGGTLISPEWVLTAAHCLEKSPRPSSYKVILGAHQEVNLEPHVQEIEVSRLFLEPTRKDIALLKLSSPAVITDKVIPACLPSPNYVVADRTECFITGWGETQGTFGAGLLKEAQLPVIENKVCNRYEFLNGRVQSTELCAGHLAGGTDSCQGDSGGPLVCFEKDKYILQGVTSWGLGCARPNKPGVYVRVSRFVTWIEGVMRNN
The target in assay [8] is bovine α-thrombin (bovine). The assay can be described thus: enzyme inhibition (amidolytic activity, chromogenic substrate); Ki of thrombin inhibition; tight-binding kinetics assumed, apparent (native inhibitor); the conditions of the Ki determination itself are not told.
The target in another assay is human α-thrombin (human). The assay can be described thus: native gel or EMSA; 500 ng human thrombin or bovine trypsin in 25 mM Tris-HCl pH 8.0, 190 mM glycine, mixed with increasing boophilin, 15 min at room temperature; 10% Tris-glycine polyacrylamide gel at 4°C, silver-stained. In general terms: A gel shift assay detects complexes by their altered migration in electrophoresis.

Assay [9] deals with bovine pancreatic trypsin (bovine). The assay is described as above.

Chain of human plasma kallikrein (human) (P03952 20-390, chain 1 of 2): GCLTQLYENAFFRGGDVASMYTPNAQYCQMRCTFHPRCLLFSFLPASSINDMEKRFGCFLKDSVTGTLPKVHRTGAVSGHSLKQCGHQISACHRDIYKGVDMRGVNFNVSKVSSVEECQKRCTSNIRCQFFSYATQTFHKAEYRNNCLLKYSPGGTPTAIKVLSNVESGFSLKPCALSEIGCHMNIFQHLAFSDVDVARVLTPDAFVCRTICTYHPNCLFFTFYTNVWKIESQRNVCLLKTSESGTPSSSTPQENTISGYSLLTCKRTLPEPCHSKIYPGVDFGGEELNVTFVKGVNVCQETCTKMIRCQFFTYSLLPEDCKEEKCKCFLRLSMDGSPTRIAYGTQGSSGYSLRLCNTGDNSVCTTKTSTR
Chain of human plasma kallikrein (human) (P03952 391-638, chain 2 of 2): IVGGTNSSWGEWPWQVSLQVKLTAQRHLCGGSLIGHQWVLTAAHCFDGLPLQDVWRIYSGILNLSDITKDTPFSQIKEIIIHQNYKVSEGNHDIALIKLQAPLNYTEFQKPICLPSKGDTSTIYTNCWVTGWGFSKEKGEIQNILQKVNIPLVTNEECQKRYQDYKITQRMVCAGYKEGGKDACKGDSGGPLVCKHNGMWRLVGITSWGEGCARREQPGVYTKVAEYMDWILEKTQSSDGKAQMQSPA
Chain of recombinant human FVIIa (NovoSeven) (human) (P08709 61-212, chain 1 of 2): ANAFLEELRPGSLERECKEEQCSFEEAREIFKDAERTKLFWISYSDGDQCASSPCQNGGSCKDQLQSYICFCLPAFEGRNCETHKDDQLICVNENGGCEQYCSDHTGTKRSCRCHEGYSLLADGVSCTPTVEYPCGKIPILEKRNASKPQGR
Chain of recombinant human FVIIa (NovoSeven) (human) (P08709 213-466, chain 2 of 2): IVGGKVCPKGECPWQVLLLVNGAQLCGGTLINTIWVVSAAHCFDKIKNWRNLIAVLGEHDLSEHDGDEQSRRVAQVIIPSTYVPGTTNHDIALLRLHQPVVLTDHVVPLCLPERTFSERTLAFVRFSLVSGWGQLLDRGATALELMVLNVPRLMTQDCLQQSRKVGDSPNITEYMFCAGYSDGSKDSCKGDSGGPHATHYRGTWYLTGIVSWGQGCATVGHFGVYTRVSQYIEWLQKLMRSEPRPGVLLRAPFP
Chain of recombinant tryptase (Q15661 19-275): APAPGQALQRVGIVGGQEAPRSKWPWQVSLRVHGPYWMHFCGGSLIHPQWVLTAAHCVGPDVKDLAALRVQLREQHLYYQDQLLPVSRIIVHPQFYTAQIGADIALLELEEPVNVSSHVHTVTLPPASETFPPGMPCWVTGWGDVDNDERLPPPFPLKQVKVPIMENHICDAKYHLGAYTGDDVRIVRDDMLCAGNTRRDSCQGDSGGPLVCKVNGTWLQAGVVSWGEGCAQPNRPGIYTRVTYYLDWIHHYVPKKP
Chain of recombinant sc-tPA (P00750 36-562): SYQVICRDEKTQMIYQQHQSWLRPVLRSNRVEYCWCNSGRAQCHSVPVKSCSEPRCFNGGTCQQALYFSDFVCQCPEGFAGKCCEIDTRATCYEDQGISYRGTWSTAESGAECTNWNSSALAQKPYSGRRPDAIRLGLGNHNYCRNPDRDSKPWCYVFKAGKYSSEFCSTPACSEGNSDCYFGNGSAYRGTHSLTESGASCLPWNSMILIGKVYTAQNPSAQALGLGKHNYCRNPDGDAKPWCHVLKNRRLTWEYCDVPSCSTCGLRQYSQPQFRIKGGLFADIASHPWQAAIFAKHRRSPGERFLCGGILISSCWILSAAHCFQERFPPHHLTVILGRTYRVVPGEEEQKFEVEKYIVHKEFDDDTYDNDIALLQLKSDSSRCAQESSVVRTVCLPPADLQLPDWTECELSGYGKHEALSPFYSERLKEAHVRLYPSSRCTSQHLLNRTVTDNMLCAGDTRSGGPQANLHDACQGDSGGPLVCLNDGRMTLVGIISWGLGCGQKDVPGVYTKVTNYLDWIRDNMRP
Chain of human α-FXIIa (human) (P00748 20-372, chain 1 of 2): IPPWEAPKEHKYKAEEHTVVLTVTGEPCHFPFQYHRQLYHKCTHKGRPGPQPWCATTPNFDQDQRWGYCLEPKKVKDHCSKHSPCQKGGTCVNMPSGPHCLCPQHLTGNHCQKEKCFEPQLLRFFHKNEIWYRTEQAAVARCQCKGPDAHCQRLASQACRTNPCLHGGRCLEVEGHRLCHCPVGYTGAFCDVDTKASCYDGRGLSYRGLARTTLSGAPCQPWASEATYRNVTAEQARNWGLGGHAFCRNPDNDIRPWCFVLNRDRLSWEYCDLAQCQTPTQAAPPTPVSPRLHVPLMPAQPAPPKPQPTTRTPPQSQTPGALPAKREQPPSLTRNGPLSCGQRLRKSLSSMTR
Chain of human α-FXIIa (human) (P00748 373-615, chain 2 of 2): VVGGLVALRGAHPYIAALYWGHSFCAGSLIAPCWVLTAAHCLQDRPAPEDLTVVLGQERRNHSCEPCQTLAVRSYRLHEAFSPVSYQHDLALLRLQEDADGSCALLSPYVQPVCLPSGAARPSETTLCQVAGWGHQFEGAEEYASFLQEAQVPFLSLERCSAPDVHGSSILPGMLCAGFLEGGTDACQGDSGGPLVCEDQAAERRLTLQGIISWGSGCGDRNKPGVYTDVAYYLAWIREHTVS

“isolated C-terminal boophilin domain (domain or fragment)”: the Inhibition of amidolytic activity (%), recombinant inhibitor (C-terminal domain) 15.2 µM, substrate Chromozym TH in the assay with recombinant tryptase was found to be 8%. Besides, the Inhibition of amidolytic activity (%), recombinant inhibitor (C-terminal domain) 15.2 µM, substrate Pefachrome tPA in [1] stood at 80%; with recombinant sc-tPA, 2%. The Inhibition of amidolytic activity (%), recombinant inhibitor (C-terminal domain) 15.2 µM, substrate Chromozym PL with human plasmin (human) [2] amounted to 25%. Besides, the Inhibition of amidolytic activity (%), recombinant inhibitor (C-terminal domain) 15.2 µM, substrate Chromozym PK in [3] came to 0%. The Inhibition of amidolytic activity (%), recombinant inhibitor (C-terminal domain) 15.2 µM, substrate Pefachrome FXIIa with human α-FXIIa (human) turned out to be 0%. In the assay with urokinase (uPA), the Inhibition of amidolytic activity (%), recombinant inhibitor (C-terminal domain) 15.2 µM, substrate Pefachrome uPA worked out at 17%. Besides, the Inhibition of amidolytic activity (%), recombinant inhibitor (C-terminal domain) 15.2 µM, substrate Chromozym X in [4] stood at 0%. Besides, in assay [5], the Inhibition of amidolytic activity (%), recombinant inhibitor (C-terminal domain) 15.2 µM, substrate Chromozym tPA was 0%.

Consider “recombinant boophilin (full-length mature protein, variant H2) (from UniProt Q8WPI2 16-142) (natural protein)”, for which the values for the second order rate constant k2/Ki (in [6]; with human plasmin (human) [7]) were 384000 M⁻¹ s⁻¹ and 259000 M⁻¹ s⁻¹, respectively. Besides, the Ki in assay [8] is 3.4 nM. The Inhibition of amidolytic activity (%), recombinant inhibitor (full-length) 2.36 µM, substrate Pefachrome tPA in [1] was determined as 98%. Further, the Inhibition of amidolytic activity (%), recombinant inhibitor (full-length) 2.36 µM, substrate Chromozym PL with human plasmin (human) [2] worked out at 95%.

Substance native boophilin (natural protein) gave a second order rate constant k2/Ki in assay [6] of 308000 M⁻¹ s⁻¹. In addition, the Ki in assay [8] came to 1.8 nM. In addition, in assay [1], the Inhibition of amidolytic activity (%), native inhibitor 3.53 µM, substrate Pefachrome tPA is 97%. Further, in the assay with human plasmin (human) [2], the Inhibition of amidolytic activity (%), native inhibitor 3.53 µM, substrate Chromozym PL came out at 87%. The substance further had an Inhibition of amidolytic activity (%), native inhibitor 3.53 µM, substrate Chromozym PK in assay [3] of 66%. The Inhibition of amidolytic activity (%), native inhibitor 3.53 µM, substrate Pefachrome uPA with urokinase (uPA) stood at 16%. This substance also showed an Inhibition of amidolytic activity (%), native inhibitor 3.53 µM, substrate Chromozym X in assay [4] of 10%. Besides, the stoichiometry N (with human α-thrombin (human); in assay [9]) was 1 each time.

These data come from publication PMC2230226.
